Biological target: SAMHD1 (T592A), constitutively active SAM domain and HD domain-containing protein 1 (UniProt Q9Y3Z3)
Assay: cell-based or functional assay

Sequence of SAMHD1 (T592A), constitutively active SAM domain and HD domain-containing protein 1 (Q9Y3Z3 whole entry T592A, the tested form may be a part): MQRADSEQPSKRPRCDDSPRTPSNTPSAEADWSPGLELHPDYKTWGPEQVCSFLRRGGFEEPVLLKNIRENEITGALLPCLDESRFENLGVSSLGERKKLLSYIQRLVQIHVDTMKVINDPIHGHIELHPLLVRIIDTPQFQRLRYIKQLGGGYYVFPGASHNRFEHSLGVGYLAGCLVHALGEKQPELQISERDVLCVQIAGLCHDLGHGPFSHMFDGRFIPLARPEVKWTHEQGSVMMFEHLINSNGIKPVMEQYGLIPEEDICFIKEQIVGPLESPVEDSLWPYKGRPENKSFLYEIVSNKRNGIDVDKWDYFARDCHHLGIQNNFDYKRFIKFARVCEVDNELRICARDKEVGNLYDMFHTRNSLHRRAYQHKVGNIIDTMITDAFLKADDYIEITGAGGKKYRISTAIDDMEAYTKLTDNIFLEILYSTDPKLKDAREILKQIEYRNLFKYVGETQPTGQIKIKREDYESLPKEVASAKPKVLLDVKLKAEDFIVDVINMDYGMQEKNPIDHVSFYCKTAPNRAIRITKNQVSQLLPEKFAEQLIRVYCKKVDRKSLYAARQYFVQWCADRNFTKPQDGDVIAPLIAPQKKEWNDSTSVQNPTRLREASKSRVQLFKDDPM

Substance | editing efficiency, mutation 65-nt from the nick, relative to no SAMHD1^p- | editing efficiency, RW2I, mutation 2-nt from the nick, SAMHD1 (T592A) coexpressed
VPX^ROD (Vpx from the ROD HIV-2 isolate) (from UniProt P06939 1-112) | 78% | 
VPX^RH2-1 (variant of VPX from HIV-2 clinical isolate RH2-1) (from UniProt P20881 1-112) |  | 64%

Reference: patent publication US20210292753A1
